Assay results: US20240100181A1 (AbbVie / Abbott, published 2024)

B1: ADC-1 (CD19 Phosphorylated GRM agonist ADC: CD19 mAb conjugated to the drug linker of Formula V) (other)
heavy: EVQLVESGGGLVQPGGSLRLSCAASGFTFTTYWINWVRQAPGKGLEWIGNIYPSDSYTNYNQKFKDRATLSVDKSKNTAYLQMNSLRAEDTAVYYCTREDYYGSSSYYAMDYWGQGTLVTVSSASTKGPSVFPLAPSSKSTSGGTAALGCLVKDYFPEPVTVSWNSGALTSGVHTFPAVLQSSGLYSLSSVVTVPSSSLGTQTYICNVNHKPSNTKVDKKVEPKSCDKTHTCPPCPAPELLGGPSVFLFPPKPKDTLMISRTPEVTCVVVDVSHEDPEVKFNWYVDGVEVHNAKTKPREEQYNGSTYRVVSVLTVLHQDWLNGKEYKCKVSNKALPAPIEKTISKAKGQPREPQVYTLPPSREEMTKNQVSLTCLVKGFYPSDIAVEWESNGQPENNYKTTPPVLDSDGSFFLYSKLTVDKSRWQQGNVFSCSVMHEALHNHYTQKSLSLSPGK
light: AILMTQSPSSLSASVGDRVTITCKASQDVGTAVAWYQQKPGKAPKLLIYWASTRHTGVPSRFSGSGSGTDFTLTISSLQPEDFATYYCQQYSTYPLTFGQGTKVEIKRTVAAPSVFIFPPSDEQLKSGTASVVCLLNNFYPREAKVQWKVDNALQSGNSQESVTEQDSKDSTYSLSSTLTLSKADYEKHKVYACEVTHQGLSSPVTKSFNRGEC
modifications: zero or one phosphate-GRM drug linker molecule (Formula V) attached via cysteine -S-; cysteine position not stated; afucosylated at ASN-300 (EU: ASN-297); zero, one, two or three phosphate-GRM drug linker molecules (Formula V, Ala-Ala linker) attached via cysteine -S-; cysteine positions not stated
B2: CD19 mAb (humanized, afucosylated anti-CD19 IgG1 kappa monoclonal antibody of Example 1) (antibody)
heavy: B1 heavy
light: B1 light
modifications: afucosylated N-glycan at ASN-300 (EU: ASN-297), greater than or equal to 90% afucosylated
notes: Human IgG1, kappa; Made in CHO cells expressing Pseudomonas RMD; also called CD19 antibody; humanized anti-CD19 antibody

What was measured:
human CD19 [1] = biological target: T1, human CD19 (human, UniProt P15391 20-556); test: cell-based or functional assay
T1 sequence (looked up): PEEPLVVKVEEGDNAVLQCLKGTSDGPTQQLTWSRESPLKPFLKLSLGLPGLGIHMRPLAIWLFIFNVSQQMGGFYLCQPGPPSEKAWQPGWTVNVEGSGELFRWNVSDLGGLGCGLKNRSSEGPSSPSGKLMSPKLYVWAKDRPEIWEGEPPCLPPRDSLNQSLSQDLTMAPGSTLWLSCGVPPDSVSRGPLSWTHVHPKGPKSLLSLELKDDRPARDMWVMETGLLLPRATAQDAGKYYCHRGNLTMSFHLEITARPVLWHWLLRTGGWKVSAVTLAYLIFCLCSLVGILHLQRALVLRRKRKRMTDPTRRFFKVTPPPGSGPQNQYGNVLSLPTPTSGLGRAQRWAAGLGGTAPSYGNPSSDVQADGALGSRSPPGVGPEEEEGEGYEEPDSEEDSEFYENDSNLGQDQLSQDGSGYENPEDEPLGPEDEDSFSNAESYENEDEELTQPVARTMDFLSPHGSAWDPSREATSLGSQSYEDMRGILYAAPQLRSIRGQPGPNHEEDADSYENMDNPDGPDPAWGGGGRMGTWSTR

[2] = biological target: FcγRIIIa V158 variant (high-affinity allotype) (human, UniProt P08637 17-254); test: cell-based or functional assay
FcγRIIIa V158 variant (high-affinity allotype), sequence (P08637 other isoform, or with tags, fused parts or gaps mutant limits assumed): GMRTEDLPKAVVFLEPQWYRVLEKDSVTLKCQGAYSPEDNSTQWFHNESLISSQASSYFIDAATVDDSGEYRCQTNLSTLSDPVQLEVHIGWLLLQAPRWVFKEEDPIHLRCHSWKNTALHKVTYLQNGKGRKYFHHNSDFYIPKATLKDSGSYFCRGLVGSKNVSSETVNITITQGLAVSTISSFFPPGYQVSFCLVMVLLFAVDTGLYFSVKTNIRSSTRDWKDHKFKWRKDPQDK

[3] = biological target: FcγRIIIa F158 variant (low-affinity allotype) (human, UniProt P08637 17-254); test: cell-based or functional assay
FcγRIIIa F158 variant (low-affinity allotype), sequence (P08637 17-254, change not shown): as the sequence (P08637 other isoform, or with tags, fused parts or gaps mutant limits assumed) above, with V160F counted along it

human CD19 [4] = biological target: T1, human CD19; test: cell-based or functional assay; remark: listed apart in the source
human CD19 [5] = biological target: T1, human CD19; test: flow cytometry on Raji (BL) cells, endogenous CD19; average of two experiments
human CD19 [6] = biological target: T1, human CD19; test: flow cytometry on RS4; 11 (ALL) cells, endogenous CD19; average of two experiments
human CD19 [7] = biological target: T1, human CD19; test: flow cytometry on SUP-B15 (ALL) cells, endogenous CD19; average of two experiments
human CD19 [8] = biological target: T1, human CD19; test: flow cytometry on OCI-LY19 (DLBCL) cells, endogenous CD19; average of two experiments

Binder	PBMC co-culture ADCC, specific lysis EC50 (RS4; 11, Raji, KARPAS422) (human CD19 [1]) [nM]	ADCC NFAT reporter activation (Jurkat reporter cells, Raji target cells) [2] [nM]	ADCC NFAT reporter activation (Jurkat reporter cells, Raji target cells) [3] [nM]	anti-proliferative assay EC50, KARPAS422 (DLBCL) (human CD19 [4]) [nM]	anti-proliferative assay EC50, OCI-LY19 (DLBCL) (human CD19 [4]) [nM]	anti-proliferative assay EC50, RS4; 11 (ALL) (human CD19 [4]) [nM]	anti-proliferative assay EC50, SU-DHL-6 (DLBCL) (human CD19 [4]) [nM]	anti-proliferative assay EC50, SUP-B15 (ALL) (human CD19 [4]) [nM]	EC50 (human CD19 [5]) [nM]	EC50 (human CD19 [6]) [nM]	EC50 (human CD19 [7]) [nM]	EC50 (human CD19 [8]) [nM]
B1	0.07 to 0.142	0.017	0.018	0.21	103	0.082	0.311	0.321				
B2		0.027	0.023						0.713	0.401	0.683	0.836
